Test results: US20100098704A1 (CELLDEX THERAPEUTICS, published 2010)

What was measured:
[1] = target: T1, human Dendritic and Epithelial Cell 205 receptor (DEC-205) expressed on cells (human, UniProt O60449 28-1722); test: flow cytometry, human monocyte-derived dendritic cells, saturating antibody, PE goat anti-human IgG Fc [D]
[2] = target: T2, soluble recombinant human DEC-205 fusion protein (DEC-205 extracellular domain comprising all ten … (human)); test: SPR (Biacore 2000), DEC-205 fusion protein amine-coupled to CM5 chip, antibody flowed, 1:1 Langmuir fit, mean of two series
T2 chain: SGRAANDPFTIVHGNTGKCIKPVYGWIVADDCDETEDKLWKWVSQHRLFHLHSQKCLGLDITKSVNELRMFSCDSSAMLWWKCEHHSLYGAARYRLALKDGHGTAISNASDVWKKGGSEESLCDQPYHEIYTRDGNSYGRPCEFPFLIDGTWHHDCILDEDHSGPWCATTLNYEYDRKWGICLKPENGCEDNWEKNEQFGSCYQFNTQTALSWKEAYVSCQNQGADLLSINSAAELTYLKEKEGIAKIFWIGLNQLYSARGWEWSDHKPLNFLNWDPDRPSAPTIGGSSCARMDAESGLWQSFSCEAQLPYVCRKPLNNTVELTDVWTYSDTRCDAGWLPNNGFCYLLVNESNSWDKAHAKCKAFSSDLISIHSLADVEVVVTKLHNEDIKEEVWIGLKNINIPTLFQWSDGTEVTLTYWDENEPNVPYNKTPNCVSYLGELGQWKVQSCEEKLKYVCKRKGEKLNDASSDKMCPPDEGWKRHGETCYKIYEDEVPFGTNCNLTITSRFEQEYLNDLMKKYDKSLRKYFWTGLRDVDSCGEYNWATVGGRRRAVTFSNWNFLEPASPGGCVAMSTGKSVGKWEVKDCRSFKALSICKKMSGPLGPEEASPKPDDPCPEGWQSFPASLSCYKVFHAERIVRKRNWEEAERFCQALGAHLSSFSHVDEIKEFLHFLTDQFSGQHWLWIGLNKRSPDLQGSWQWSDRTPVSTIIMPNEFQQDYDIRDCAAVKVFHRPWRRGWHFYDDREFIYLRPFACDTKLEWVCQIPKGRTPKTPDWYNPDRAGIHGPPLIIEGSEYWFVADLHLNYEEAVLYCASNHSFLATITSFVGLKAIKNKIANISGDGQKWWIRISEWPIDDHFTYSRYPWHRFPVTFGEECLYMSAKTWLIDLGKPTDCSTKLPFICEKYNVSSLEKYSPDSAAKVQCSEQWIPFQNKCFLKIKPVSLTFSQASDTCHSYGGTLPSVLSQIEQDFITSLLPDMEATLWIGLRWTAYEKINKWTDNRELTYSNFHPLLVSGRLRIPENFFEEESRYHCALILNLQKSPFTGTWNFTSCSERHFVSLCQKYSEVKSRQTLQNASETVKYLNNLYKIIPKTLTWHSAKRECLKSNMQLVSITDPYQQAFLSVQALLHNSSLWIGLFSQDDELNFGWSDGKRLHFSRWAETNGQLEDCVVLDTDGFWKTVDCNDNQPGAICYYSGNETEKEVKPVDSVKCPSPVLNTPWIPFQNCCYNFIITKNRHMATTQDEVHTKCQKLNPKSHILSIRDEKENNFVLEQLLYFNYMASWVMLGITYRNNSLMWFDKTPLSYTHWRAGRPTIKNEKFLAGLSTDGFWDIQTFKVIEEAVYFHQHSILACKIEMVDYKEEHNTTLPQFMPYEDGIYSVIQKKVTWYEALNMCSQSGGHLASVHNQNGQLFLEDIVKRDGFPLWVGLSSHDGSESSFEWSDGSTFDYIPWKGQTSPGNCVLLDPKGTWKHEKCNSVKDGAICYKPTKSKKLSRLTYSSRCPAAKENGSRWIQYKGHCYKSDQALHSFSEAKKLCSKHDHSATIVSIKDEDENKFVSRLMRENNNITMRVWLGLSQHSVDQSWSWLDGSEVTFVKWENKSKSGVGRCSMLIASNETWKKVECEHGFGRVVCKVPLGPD

[3] = target: T1, human Dendritic and Epithelial Cell 205 …; test: flow cytometry, human monocyte-derived dendritic cells, saturating antibody, PE goat anti-human IgG Fc [F]
[4] = target: T1, human Dendritic and Epithelial Cell 205 …; test: flow cytometry, human monocyte-derived dendritic cells, saturating antibody, PE goat anti-human IgG Fc [C]
[5] = target: T1, human Dendritic and Epithelial Cell 205 …; test: flow cytometry, CHO-S cells expressing human DEC-205 against control CHO-S cells, saturating antibody, PE goat anti-human IgG Fc [A]

B1: human anti-DEC-205 monoclonal antibody 5A8-1F1 (antibody, V domains shown)
VH: QVQLVESGGGVVQPGRSLRLSCAASGFTFSTYGMHWVRQAPGKGLEWVAIIWYDGGNKYYADSVKGRFTISRDNSKNTLYLQMNSLRAEDTAVYYCARDFYWYFDLWGRGTLVTVSS
VL: EIVLTQSPATLSLSPGERATLSCRASQSVSSYLAWYQQKPGQAPRLLIYDASNRATGIPARFSGSGSGTDFTLTISSLEPEDFAVYYCQQRRTFGQGTKVEIK
binding result [1]: binds
Ka [2]: 2.1e+09 M⁻¹
Kd [2]: 1.5 nM
koff [2]: 0.0002 s⁻¹
kon [2]: 360000 M⁻¹ s⁻¹

B2: human anti-DEC-205 monoclonal antibody 3C7-3A3 (antibody, V domains shown)
VH: QVQLVESGGGVVQPGRSLRLSCAASGFTFSSYNMHWVRQAPGKGLEWVAFIWYDGSNKYYGDSVKGRFTISRDNSKNTLYLQMNSLRAEDTAVYYCAREELGIGWYFDLWGRGTLVTVSS
VL: B1 VL
binding result [3]: binds
Ka [2]: 5.2e+08 M⁻¹
Kd [2]: 5.6 nM
koff [2]: 0.00076 s⁻¹
kon [2]: 170000 M⁻¹ s⁻¹

B3: human anti-DEC-205 monoclonal antibody 3G9-2D2 (antibody, V domains shown)
VH: QVQLVESGGGVVQPGRSLRLSCAASGFTFSNYGMYWVRQAPGKGLEWVAVIWYDGSNKYYADSVKGRFTISRDNSKNTLYLQMNSLRAEDTAVYYCARDLWGWYFDYWGQGTLVTVSS
VL: EIVLTQSPATLSLSPGERATLSCRASQSVSSYLAWYQQKPGQAPRLLIYDASNRATGIPARFSGSGSGTDFTLTISSLEPEDFAVYYCQQRRNWPLTFGGGTKVEIK
binding result [4]: binds
Ka [2]: 4.7e+09 M⁻¹
Kd [2]: 0.24 nM
koff [2]: 0.00019 s⁻¹
kon [2]: 900000 M⁻¹ s⁻¹

B4: human anti-DEC-205 monoclonal antibody 3D6-2F4 (antibody, V domains shown)
VH: QVQLVESGGGVVQPGRSLRLSCAASGFIFSIYGMHWVRQAPGKGLEWVAVIWYDGSNKYYADSVKGRFTISRDNSKNTLYLQMNSLRAEDTAVYYCARAPHFDYWGQGTLVTVSS
VL: DIQMTQSPSSLSASVGDRVTITCRASQGISSWLAWYQQKPEKAPKSLIYAASSLQSGVPSRFSGSGSGTDFTLTISSLQPEDFATYYCQQYNSYPYTFGQGTKLEIK
notes: also called mAb #5
Ka [2]: 1.5e+10 M⁻¹
Kd [2]: 0.08 nM
koff [2]: 0.00012 s⁻¹
kon [2]: 1.8e+06 M⁻¹ s⁻¹
binding result [5]: binds
